The target in assay [1] is EED (Homo sapiens) (UniProt O75530). The note with it: cited from earlier work.
Assay [2] concerns the target purified full-length EED (AlphaScreen) (UniProt O75530). Briefly: AlphaScreen or HTRF.

For orientation: Kd means the free concentration of one partner at which half of the binding sites on the other are occupied at equilibrium, for simple one-to-one binding. By EC50 is commonly meant the concentration giving half of the maximal effect. Low readings indicate an effect from little substance, high ones a need for much substance.

Chain of EZH2 39-68 (Q15910 39-68): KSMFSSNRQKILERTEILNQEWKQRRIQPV
Chain of purified full-length EED (AlphaScreen) (O75530 whole entry): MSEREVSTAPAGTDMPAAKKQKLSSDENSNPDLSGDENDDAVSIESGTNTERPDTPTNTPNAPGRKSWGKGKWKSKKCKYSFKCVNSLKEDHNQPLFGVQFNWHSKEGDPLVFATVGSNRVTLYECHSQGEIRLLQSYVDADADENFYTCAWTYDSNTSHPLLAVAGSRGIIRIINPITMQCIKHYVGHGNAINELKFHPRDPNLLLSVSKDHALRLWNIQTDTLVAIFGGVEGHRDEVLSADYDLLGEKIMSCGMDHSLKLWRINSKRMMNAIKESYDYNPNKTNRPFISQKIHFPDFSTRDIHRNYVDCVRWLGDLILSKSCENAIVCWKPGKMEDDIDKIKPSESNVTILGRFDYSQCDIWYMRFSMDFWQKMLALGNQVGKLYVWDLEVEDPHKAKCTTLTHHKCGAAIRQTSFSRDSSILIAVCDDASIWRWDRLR
Chain of EED (Homo sapiens) (O75530 2-441): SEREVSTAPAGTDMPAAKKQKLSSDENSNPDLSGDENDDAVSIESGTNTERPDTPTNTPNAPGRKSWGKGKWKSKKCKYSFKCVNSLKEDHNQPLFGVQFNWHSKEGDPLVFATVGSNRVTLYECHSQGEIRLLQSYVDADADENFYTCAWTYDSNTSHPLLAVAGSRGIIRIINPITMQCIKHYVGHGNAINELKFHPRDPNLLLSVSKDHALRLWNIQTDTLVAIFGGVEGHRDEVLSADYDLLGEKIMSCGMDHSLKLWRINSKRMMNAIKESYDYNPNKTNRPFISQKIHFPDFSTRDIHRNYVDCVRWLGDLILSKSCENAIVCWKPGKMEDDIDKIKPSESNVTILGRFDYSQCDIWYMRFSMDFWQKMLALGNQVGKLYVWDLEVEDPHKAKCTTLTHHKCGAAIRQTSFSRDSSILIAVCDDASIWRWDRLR

On to EZH2 39-68 (from UniProt Q15910), for which the Kd in assay [1] is 380 nM.
In turn, “unlabeled full-length RING1B (from UniProt Q99496 1-336) (natural protein)” had a concentration for a half-maximal effect (EC50) in assay [2] of 605 nM.

The record behind these values is article PMC4073494.
